Measured values reported in paper PMC2475716 (The Journal of Biological Chemistry, 2008).

B4: HGF-α (domain or fragment, UniProt P14210 32-473, looked up)
chain: QRKRRNTIHEFKKSAKTTLIKIDPALKIKTKKVNTADQCANRCTRNKGLPFTCKAFVFDKARKQCLWFPFNSMSSGVKKEFGHEFDLYENKDYIRNCIIGKGRSYKGTVSITKSGIKCQPWSSMIPHEHSFLPSSYRGKDLQENYCRNPRGEEGGPWCFTSNPEVRYEVCDIPQCSEVECMTCNGESYRGLMDHTESGKICQRWDHQTPHRHKFLPERYPDKGFDDNYCRNPDGQPRPWCYTLDPHTRWEYCAIKTCADNTMNDTDVPLETTECIQGQGEGYRGTVNTIWNGIPCQRWDSQYPHEHDMTPENFKCKDLRENYCRNPDGSESPWCFTTDPNIRVGYCSQIPNCDMSHGQDCYRGNGKNYMGNLSQTRSGLTCSMWDKNMEDLHRHIFWEPDASKLNENYCRNPDDDAHGPWCYTGNPLIPWDYCPISRCEGDT

Assays:
Assay in all cases: ELISA
Decoy Met = Decoy Met (UniProt P08581 25-932)
IPT = IPT (UniProt P08581 563-932)
HGF-α = target: B4
active HGF = active HGF (UniProt P14210 32-494; P14210 495-728)
active HGF, sequence (P14210 495-728, one chain of several): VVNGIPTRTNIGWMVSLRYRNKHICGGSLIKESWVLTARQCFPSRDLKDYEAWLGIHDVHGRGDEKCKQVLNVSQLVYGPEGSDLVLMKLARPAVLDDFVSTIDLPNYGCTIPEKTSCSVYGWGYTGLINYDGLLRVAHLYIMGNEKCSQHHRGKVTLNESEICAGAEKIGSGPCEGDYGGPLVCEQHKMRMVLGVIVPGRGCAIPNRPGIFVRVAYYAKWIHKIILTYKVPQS

B1: HGF NK1 (domain or fragment, UniProt P14210-1 32-205, looked up)
chain: QRKRRNTIHEFKKSAKTTLIKIDPALKIKTKKVNTADQCANRCTRNKGLPFTCKAFVFDKARKQCLWFPFNSMSSGVKKEFGHEFDLYENKDYIRNCIIGKGRSYKGTVSITKSGIKCQPWSSMIPHEHSFLPSSYRGKDLQENYCRNPRGEEGGPWCFTSNPEVRYEVCDIPQ
Decoy Met
  fold reduced affinity compared with active HGF: 10 fold
IPT
  fold less tightly than active HGF: 10 times

B2: IPT Δ1 (domain or fragment, UniProt P08581 657-932, looked up)
chain: PVITSISPKYGPMAGGTLLTLTGNYLNSGNSRHISIGGKTCTLKSVSNSILECYTPAQTISTEFAVKLKIDLANRETSIFSYREDPIVYEIHPTKSFISGGSTITGVGKNLNSVSVPRMVINVHEAGRNFTVACQHRSNSEIICCTTPSLQQLNLQLPLKTKAFFMLDGILSKYFDLIYVHNPVFKPFEKPVMISMGNENVLEIKGNDIDPEAVKGEVLKVGNKSCENIHLHSEAVLCTVPNDLLKLNSELNIEWKQAISSTVLGKVIVQPDQNFT
HGF-α
  binding result: binds

B3: PSI-IPT (domain or fragment, UniProt P08581 516-932, looked up)
chain: NGLGCRHFQSCSQCLSAPPFVQCGWCHDKCVRSEECLSGTWTQQICLPAIYKVFPNSAPLEGGTRLTICGWDFGFRRNNKFDLKKTRVLLGNESCTLTLSESTMNTLKCTVGPAMNKHFNMSIIISNGHGTTQYSTFSYVDPVITSISPKYGPMAGGTLLTLTGNYLNSGNSRHISIGGKTCTLKSVSNSILECYTPAQTISTEFAVKLKIDLANRETSIFSYREDPIVYEIHPTKSFISGGSTITGVGKNLNSVSVPRMVINVHEAGRNFTVACQHRSNSEIICCTTPSLQQLNLQLPLKTKAFFMLDGILSKYFDLIYVHNPVFKPFEKPVMISMGNENVLEIKGNDIDPEAVKGEVLKVGNKSCENIHLHSEAVLCTVPNDLLKLNSELNIEWKQAISSTVLGKVIVQPDQNFT
Active HGF
  binding result: binds

## B4
Decoy Met
  fold reduced affinity compared with active HGF: 4 fold
